The record followed here is patent publication US20260337278 (published 2026).

B1: SI-95X13 (antibody)
chain 1: not shown
chain 2: QVQLQQSGAEVKKPGSSVKVSCKASGYTFTNYYIYWVRQAPGQGLEWIGGINPTSGGSNFNEKFKTRVTITADESSTTAYMELSSLRSEDTAFYFCTRQGLWFDSDGRGFDFWGQGTTVTVSSGGGGSGGGGSGGGGSDIQMTQSPSSLSASVGDRVTITCRSSQNIVHSNGNTYLDWYQQTPGKAPKLLIYKVSNRFSGVPSRFSGSGSGTDFTFTISSLQPEDIATYYCFQYSHVPWTFGQGTKLQITGGGGSGGGGSGSGSGGGGGSGGGGSGGGGSDILMTQSPSSMSVSLGDTVSITCHSSQDINSNIGWLQQRPGKSFKGLIYHGTNLDDEVPSRFSGSGSGADYSLTISSLESEDFADYYCVQYAQFPWTFGGGTKLEIKRTVAAPSVFIFPPSDEQLKSGTASVVCLLNNFYPREAKVQWKVDNALQSGNSQESVTEQDSKDSTYSLSSTLTLSKADYEKHKVYACEVTHQGLSSPVTKSFNRGEC
B2: SI-95X12 (antibody)
chain 1: not shown
chain 2: QVQLQQSGAEVKKPGSSVKVSCKASGYTFTNYYIYWVRQAPGQGLEWIGGINPTSGGSNFNEKFKTRVTITADESSTTAYMELSSLRSEDTAFYFCTRQGLWFDSDGRGFDFWGQGTTVTVSSGGGGSGGGGSGGGGSDIQMTQSPSSLSASVGDRVTITCRSSQNIVHSNGNTYLDWYQQTPGKAPKLLIYKVSNRFSGVPSRFSGSGSGTDFTFTISSLQPEDIATYYCFQYSHVPWTFGQGTKLQITGGGGSGSGSGGGGGSGGGGSGGGGSDILMTQSPSSMSVSLGDTVSITCHSSQDINSNIGWLQQRPGKSFKGLIYHGTNLDDEVPSRFSGSGSGADYSLTISSLESEDFADYYCVQYAQFPWTFGGGTKLEIKRTVAAPSVFIFPPSDEQLKSGTASVVCLLNNFYPREAKVQWKVDNALQSGNSQESVTEQDSKDSTYSLSSTLTLSKADYEKHKVYACEVTHQGLSSPVTKSFNRGEC
B3: SI-95X14 (antibody)
chain 1: not shown
chain 2: DIQMTQSPSSLSASVGDRVTITCRSSQNIVHSNGNTYLDWYQQTPGKAPKLLIYKVSNRFSGVPSRFSGSGSGTDFTFTISSLQPEDIATYYCFQYSHVPWTFGQGTKLQITGGGGSGGGGSGGGGSQVQLQQSGAEVKKPGSSVKVSCKASGYTFTNYYIYWVRQAPGQGLEWIGGINPTSGGSNFNEKFKTRVTITADESSTTAYMELSSLRSEDTAFYFCTRQGLWFDSDGRGFDFWGQGTTVTVSSSGSGSGGGGGSGGGGSGGGGSDILMTQSPSSMSVSLGDTVSITCHSSQDINSNIGWLQQRPGKSFKGLIYHGTNLDDEVPSRFSGSGSGADYSLTISSLESEDFADYYCVQYAQFPWTFGGGTKLEIKRTVAAPSVFIFPPSDEQLKSGTASVVCLLNNFYPREAKVQWKVDNALQSGNSQESVTEQDSKDSTYSLSSTLTLSKADYEKHKVYACEVTHQGLSSPVTKSFNRGEC
B4: SI-95X15 (antibody)
chain 1: not shown
chain 2: DIQMTQSPSSLSASVGDRVTITCRSSQNIVHSNGNTYLDWYQQTPGKAPKLLIYKVSNRFSGVPSRFSGSGSGTDFTFTISSLQPEDIATYYCFQYSHVPWTFGQGTKLQITGGGGSGGGGSGGGGSQVQLQQSGAEVKKPGSSVKVSCKASGYTFTNYYIYWVRQAPGQGLEWIGGINPTSGGSNFNEKFKTRVTITADESSTTAYMELSSLRSEDTAFYFCTRQGLWFDSDGRGFDFWGQGTTVTVSSGGGGSGSGSGGGGGSGGGGSGGGGSDILMTQSPSSMSVSLGDTVSITCHSSQDINSNIGWLQQRPGKSFKGLIYHGTNLDDEVPSRFSGSGSGADYSLTISSLESEDFADYYCVQYAQFPWTFGGGTKLEIKRTVAAPSVFIFPPSDEQLKSGTASVVCLLNNFYPREAKVQWKVDNALQSGNSQESVTEQDSKDSTYSLSSTLTLSKADYEKHKVYACEVTHQGLSSPVTKSFNRGEC
B5: SI-95X11 (antibody)
chain 1: not shown
chain 2: QVQLQQSGAEVKKPGSSVKVSCKASGYTFTNYYIYWVRQAPGQGLEWIGGINPTSGGSNFNEKFKTRVTITADESSTTAYMELSSLRSEDTAFYFCTRQGLWFDSDGRGFDFWGQGTTVTVSSGGGGSGGGGSGGGGSDIQMTQSPSSLSASVGDRVTITCRSSQNIVHSNGNTYLDWYQQTPGKAPKLLIYKVSNRFSGVPSRFSGSGSGTDFTFTISSLQPEDIATYYCFQYSHVPWTFGQGTKLQITSGSGSGGGGGSGGGGSGGGGSDILMTQSPSSMSVSLGDTVSITCHSSQDINSNIGWLQQRPGKSFKGLIYHGTNLDDEVPSRFSGSGSGADYSLTISSLESEDFADYYCVQYAQFPWTFGGGTKLEIKRTVAAPSVFIFPPSDEQLKSGTASVVCLLNNFYPREAKVQWKVDNALQSGNSQESVTEQDSKDSTYSLSSTLTLSKADYEKHKVYACEVTHQGLSSPVTKSFNRGEC
B6: SI-95X9 (antibody)
chain 1: not shown
chain 2: DILMTQSPSSMSVSLGDTVSITCHSSQDINSNIGWLQQRPGKSFKGLIYHGTNLDDEVPSRFSGSGSGADYSLTISSLESEDFADYYCVQYAQFPWTFGGGTKLEIKRTVAAPSVFIFPPSDEQLKSGTASVVCLLNNFYPREAKVQWKVDNALQSGNSQESVTEQDSKDSTYSLSSTLTLSKADYEKHKVYACEVTHQGLSSPVTKSFNRGEC
B7: SI-95X4 (antibody)
chain 1: not shown
chain 2: DILMTQSPSSMSVSLGDTVSITCHSSQDINSNIGWLQQRPGKSFKGLIYHGTNLDDEVPSRFSGSGSGADYSLTISSLESEDFADYYCVQYAQFPWTFGGGTKLEIKRTVAAPSVFIFPPSDEQLKSGTASVVCLLNNFYPREAKVQWKVDNALQSGNSQESVTEQDSKDSTYSLSSTLTLSKADYEKHKVYACEVTHQGLSSPVTKSFNRGEC
B8: SI-95X7 (antibody)
chain 1: not shown
chain 2: DILMTQSPSSMSVSLGDTVSITCHSSQDINSNIGWLQQRPGKSFKGLIYHGTNLDDEVPSRFSGSGSGADYSLTISSLESEDFADYYCVQYAQFPWTFGGGTKLEIKRTVAAPSVFIFPPSDEQLKSGTASVVCLLNNFYPREAKVQWKVDNALQSGNSQESVTEQDSKDSTYSLSSTLTLSKADYEKHKVYACEVTHQGLSSPVTKSFNRGEC
B9: SI-95X8 (antibody)
chain 1: not shown
chain 2: DILMTQSPSSMSVSLGDTVSITCHSSQDINSNIGWLQQRPGKSFKGLIYHGTNLDDEVPSRFSGSGSGADYSLTISSLESEDFADYYCVQYAQFPWTFGGGTKLEIKRTVAAPSVFIFPPSDEQLKSGTASVVCLLNNFYPREAKVQWKVDNALQSGNSQESVTEQDSKDSTYSLSSTLTLSKADYEKHKVYACEVTHQGLSSPVTKSFNRGEC
B10: SI-95X5 (antibody)
chain 1: not shown
chain 2: DILMTQSPSSMSVSLGDTVSITCHSSQDINSNIGWLQQRPGKSFKGLIYHGTNLDDEVPSRFSGSGSGADYSLTISSLESEDFADYYCVQYAQFPWTFGGGTKLEIKRTVAAPSVFIFPPSDEQLKSGTASVVCLLNNFYPREAKVQWKVDNALQSGNSQESVTEQDSKDSTYSLSSTLTLSKADYEKHKVYACEVTHQGLSSPVTKSFNRGEC
B11: SI-95X16 (antibody)
chain 1: not shown
chain 2: DIQMTQSPSSLSASVGDRVTITCRSSQNIVHSNGNTYLDWYQQTPGKAPKLLIYKVSNRFSGVPSRFSGSGSGTDFTFTISSLQPEDIATYYCFQYSHVPWTFGQGTKLQITGGGGSGGGGSGGGGSQVQLQQSGAEVKKPGSSVKVSCKASGYTFTNYYIYWVRQAPGQGLEWIGGINPTSGGSNFNEKFKTRVTITADESSTTAYMELSSLRSEDTAFYFCTRQGLWFDSDGRGFDFWGQGTTVTVSSGGGGSGGGGSGSGSGGGGGSGGGGSGGGGSDILMTQSPSSMSVSLGDTVSITCHSSQDINSNIGWLQQRPGKSFKGLIYHGTNLDDEVPSRFSGSGSGADYSLTISSLESEDFADYYCVQYAQFPWTFGGGTKLEIKRTVAAPSVFIFPPSDEQLKSGTASVVCLLNNFYPREAKVQWKVDNALQSGNSQESVTEQDSKDSTYSLSSTLTLSKADYEKHKVYACEVTHQGLSSPVTKSFNRGEC

For the experiment, the target named is EGFRvIII (human, UniProt P00533). As to the kind of experiment: BLI.
In turn, B1 registered a Kd of 8.77 nM.

B2 registered a Kd of 7.8 nM.

In turn, B3 showed a Kd of 0.428 nM. For B4 the value was 0.175 nM; for B5, 4.87 nM; for B6, 6.16 nM. As to B7, binding was characterised by a dissociation constant (Kd) of 5.52 nM. With B8, the Kd amounted to 8.41 nM. For B9 the value was 6.97 nM. For B10 the value was 7.94 nM; for B11, 19.4 nM.
